Laboratory results as given in article doi:10.1101/2020.05.27.119552.

Target: dHtt-eGFP fusion protein (Drosophila Huntingtin with a C-terminal eGFP tag) (Drosophila)
Experiment: affinity purification with mass spectrometry

- stoichiometry N: 1 molar ratio
Substance: CG8134/dHap40 (Drosophila HAP40), endogenous ~40 kDa protein (from UniProt Q9VXR6 1-345) (natural protein)
